# Results reported in IntAct's records for PubMed 30126976.
# B1: Plasma membrane calcium-transporting ATPase 2 (Homo sapiens), Q01814 (parent)
# chain: MGDMTNSDFYSKNQRNESSHGGEFGCTMEELRSLMELRGTEAVVKIKETYGDTEAICRRLKTSPVEGLPGTAPDLEKRKQIFGQNFIPPKKPKTFLQLVWEALQDVTLIILEIAAIISLGLSFYHPPGEGNEGCATAQGGAEDEGEAEAGWIEGAAILLSVICVVLVTAFNDWSKEKQFRGLQSRIEQEQKFTVVRAGQVVQIPVAEIVVGDIAQVKYGDLLPADGLFIQGNDLKIDESSLTGESDQVRKSVDKDPMLLSGTHVMEGSGRMLVTAVGVNSQTGIIFTLLGAGGEEEEKKDKKGVKKGDGLQLPAADGAAASNAADSANASLVNGKMQDGNVDASQSKAKQQDGAAAMEMQPLKSAEGGDADDRKKASMHKKEKSVLQGKLTKLAVQIGKAGLVMSAITVIILVLYFTVDTFVVNKKPWLPECTPVYVQYFVKFFIIGVTVLVVAVPEGLPLAVTISLAYSVKKMMKDNNLVRHLDACETMGNATAICSDKTGTLTTNRMTVVQAYVGDVHYKEIPDPSSINTKTMELLINAIAINSAYTTKILPPEKEGALPRQVGNKTECGLLGFVLDLKQDYEPVRSQMPEEKLYKVYTFNSVRKSMSTVIKLPDESFRMYSKGASEIVLKKCCKILNGAGEPRVFRPRDRDEMVKKVIEPMACDGLRTICVAYRDFPSSPEPDWDNENDILNELTCICVVGIEDPVRPEVPEAIRKCQRAGITVRMVTGDNINTARAIAIKCGIIHPGEDFLCLEGKEFNRRIRNEKGEIEQERIDKIWPKLRVLARSSPTDKHTLVKGIIDSTHTEQRQVVAVTGDGTNDGPALKKADVGFAMGIAGTDVAKEASDIILTDDNFSSIVKAVMWGRNVYDSISKFLQFQLTVNVVAVIVAFTGACITQDSPLKAVQMLWVNLIMDTFASLALATEPPTETLLLRKPYGRNKPLISRTMMKNILGHAVYQLALIFTLLFVGEKMFQIDSGRNAPLHSPPSEHYTIIFNTFVMMQLFNEINARKIHGERNVFDGIFRNPIFCTIVLGTFAIQIVIVQFGGKPFSCSPLQLDQWMWCIFIGLGELVWGQVIATIPTSRLKFLKEAGRLTQKEEIPEEELNEDVEEIDHAERELRRGQILWFRGLNRIQTQIRVVKAFRSSLYEGLEKPESRTSIHNFMAHPEFRIEDSQPHIPLIDDTDLEEDAALKQNSSPPSSLNKNNSAIDSGINLTTDTSKSATSSSPGSPIHSLETSL
# B2: Plasma membrane calcium-transporting ATPase 1 (Homo sapiens), P20020 (parent)
# chain: MGDMANNSVAYSGVKNSLKEANHDGDFGITLAELRALMELRSTDALRKIQESYGDVYGICTKLKTSPNEGLSGNPADLERREAVFGKNFIPPKKPKTFLQLVWEALQDVTLIILEIAAIVSLGLSFYQPPEGDNALCGEVSVGEEEGEGETGWIEGAAILLSVVCVVLVTAFNDWSKEKQFRGLQSRIEQEQKFTVIRGGQVIQIPVADITVGDIAQVKYGDLLPADGILIQGNDLKIDESSLTGESDHVKKSLDKDPLLLSGTHVMEGSGRMVVTAVGVNSQTGIIFTLLGAGGEEEEKKDEKKKEKKNKKQDGAIENRNKAKAQDGAAMEMQPLKSEEGGDGDEKDKKKANLPKKEKSVLQGKLTKLAVQIGKAGLLMSAITVIILVLYFVIDTFWVQKRPWLAECTPIYIQYFVKFFIIGVTVLVVAVPEGLPLAVTISLAYSVKKMMKDNNLVRHLDACETMGNATAICSDKTGTLTMNRMTVVQAYINEKHYKKVPEPEAIPPNILSYLVTGISVNCAYTSKILPPEKEGGLPRHVGNKTECALLGLLLDLKRDYQDVRNEIPEEALYKVYTFNSVRKSMSTVLKNSDGSYRIFSKGASEIILKKCFKILSANGEAKVFRPRDRDDIVKTVIEPMASEGLRTICLAFRDFPAGEPEPEWDNENDIVTGLTCIAVVGIEDPVRPEVPDAIKKCQRAGITVRMVTGDNINTARAIATKCGILHPGEDFLCLEGKDFNRRIRNEKGEIEQERIDKIWPKLRVLARSSPTDKHTLVKGIIDSTVSDQRQVVAVTGDGTNDGPALKKADVGFAMGIAGTDVAKEASDIILTDDNFTSIVKAVMWGRNVYDSISKFLQFQLTVNVVAVIVAFTGACITQDSPLKAVQMLWVNLIMDTLASLALATEPPTESLLLRKPYGRNKPLISRTMMKNILGHAFYQLVVVFTLLFAGEKFFDIDSGRNAPLHAPPSEHYTIVFNTFVLMQLFNEINARKIHGERNVFEGIFNNAIFCTIVLGTFVVQIIIVQFGGKPFSCSELSIEQWLWSIFLGMGTLLWGQLISTIPTSRLKFLKEAGHGTQKEEIPEEELAEDVEEIDHAERELRRGQILWFRGLNRIQTQIRVVNAFRSSLYEGLEKPESRSSIHNFMTHPEFRIEDSEPHIPLIDDTDAEDDAPTKRNSSPPPSPNKNNNAVDSGIHLTIEMNKSATSSSPGSPLHSLETSL
# B3: Colorectal mutant cancer protein (Homo sapiens), P23508 (parent)
# chain: MNSGVAMKYGNDSSAELSELHSAALASLKGDIVELNKRLQQTERERDLLEKKLAKAQCEQSHLMREHEDVQERTTLRYEERITELHSVIAELNKKIDRLQGTTIREEDEYSELRSELSQSQHEVNEDSRSMDQDQTSVSIPENQSTMVTADMDNCSDLNSELQRVLTGLENVVCGRKKSSCSLSVAEVDKHIEQLTTASEHCDLAIKTVEEIEGVLGRDLYPNLAEERSRWEKELAGLREENESLTAMLCSKEEELNRTKATMNAIREERDRLRRRVRELQTRLQSVQATGPSSPGRLTSTNRPINPSTGELSTSSSSNDIPIAKIAERVKLSKTRSESSSSDRPVLGSEISSIGVSSSVAEHLAHSLQDCSNIQEIFQTLYSHGSAISESKIREFEVETERLNSRIEHLKSQNDLLTITLEECKSNAERMSMLVGKYESNATALRLALQYSEQCIEAYELLLALAESEQSLILGQFRAAGVGSSPGDQSGDENITQMLKRAHDCRKTAENAAKALLMKLDGSCGGAFAVAGCSVQPWESLSSNSHTSTTSSTASSCDTEFTKEDEQRLKDYIQQLKNDRAAVKLTMLELESIHIDPLSYDVKPRGDSQRLDLENAVLMQELMAMKEEMAELKAQLYLLEKEKKALELKLSTREAQEQAYLVHIEHLKSEVEEQKEQRMRSLSSTSSGSKDKPGKECADAASPALSLAELRTTCSENELAAEFTNAIRREKKLKARVQELVSALERLTKSSEIRHQQSAEFVNDLKRANSNLVAAYEKAKKKHQNKLKKLESQMMAMVERHETQVRMLKQRIALLEEENSRPHTNETSL
# B4: FAST kinase domain-containing protein 5, mitochondrial (Homo sapiens), Q7L8L6 (parent)
# chain: MAATLKSLKLVRYRAFCSPSAFGAVRSVSYWNVSSTQHGGQDPPEHISLCHSAKKVKNICSTFSSRRILTTSSAHPGLEFSKTSSSKASTLQLGSPRATGVDEEDVEVFDSFENMRVFLQLRPEYRVHSYNASETSQLLSVSEGELILHKVRVNQNNLQAQVIVDYLCKLSSLPAEQHPVLLGSTSFALLCQLSVKKIQLFDTQDLINVLKAFVILGIPHSHSMLDVYETKCCHQVWEMNMDQLLLVADLWRYLGRKVPRFLNIFSSYLNLHWKDLSLSQLVHLIYVIGENRQVSQDLMQKLESLILKYIDLINLEEVGTICLGFFKSSTNLSEFVMRKIGDLACANIQHLSSRSLVNIVKMFRFTHVDHINFMKQIGEIAPQRIPSLGVQGVMHLTLYCSALRFLNEGVMNAVAASLPPRVAHCRSKDVAKILWSFGTLNYKPPNAEEFYSSLISEIHRKMPEFNQYPEHLPTCLLGLAFLEYFPVELIDFALSPGFVRLAQERTKFDLLKELYTLDGTVGIECPDYRGNRLSTHLQQEGSELLWYLAEKDMNSKPEFLETVFLLETMLGGPQYVKHHMILPHTRSSDLEVQLDVNLKPLPFNREATPAENVAKLRLEHVGVSLTDDLMNKLLKGKARGHFQGKTESEPGQQPMELENKAAVPLGGFLCNVADKSGAMEMAGLCPAACMQTPRMKLAVQFTNRNQYCYGSRDLLGLHNMKRRQLARLGYRVVELSYWEWLPLLKRTRLEKLAFLHEKVFTSAL
# B5: Monocarboxylate transporter 2 (Homo sapiens), O60669 (parent)
# chain: MPPMPSAPPVHPPPDGGWGWIVVGAAFISIGFSYAFPKAVTVFFKEIQQIFHTTYSEIAWISSIMLAVMYAGGPVSSVLVNKYGSRPVVIAGGLLCCLGMVLASFSSSVVQLYLTMGFITGLGLAFNLQPALTIIGKYFYRKRPMANGLAMAGSPVFLSSLAPFNQYLFNTFGWKGSFLILGSLLLNACVAGSLMRPLGPNQTTSKSKNKTGKTEDDSSPKKIKTKKSTWEKVNKYLDFSLFKHRGFLIYLSGNVIMFLGFFAPIIFLAPYAKDQGIDEYSAAFLLSVMAFVDMFARPSVGLIANSKYIRPRIQYFFSFAIMFNGVCHLLCPLAQDYTSLVLYAVFFGLGFGSVSSVLFETLMDLVGAPRFSSAVGLVTIVECGPVLLGPPLAGKLVDLTGEYKYMYMSCGAIVVAASVWLLIGNAINYRLLAKERKEENARQKTRESEPLSKSKHSEDVNVKVSNAQSVTSERETNI
# Variants of: B1
# Settings: with scrib_human SCRIB
row,Variant,effect of a mutation on the interaction
1,S1238E;S1242E,with no effect

# Variants of: B2
# Settings: with scrib_human SCRIB
# Target sequence in this assay (Q14160 whole entry): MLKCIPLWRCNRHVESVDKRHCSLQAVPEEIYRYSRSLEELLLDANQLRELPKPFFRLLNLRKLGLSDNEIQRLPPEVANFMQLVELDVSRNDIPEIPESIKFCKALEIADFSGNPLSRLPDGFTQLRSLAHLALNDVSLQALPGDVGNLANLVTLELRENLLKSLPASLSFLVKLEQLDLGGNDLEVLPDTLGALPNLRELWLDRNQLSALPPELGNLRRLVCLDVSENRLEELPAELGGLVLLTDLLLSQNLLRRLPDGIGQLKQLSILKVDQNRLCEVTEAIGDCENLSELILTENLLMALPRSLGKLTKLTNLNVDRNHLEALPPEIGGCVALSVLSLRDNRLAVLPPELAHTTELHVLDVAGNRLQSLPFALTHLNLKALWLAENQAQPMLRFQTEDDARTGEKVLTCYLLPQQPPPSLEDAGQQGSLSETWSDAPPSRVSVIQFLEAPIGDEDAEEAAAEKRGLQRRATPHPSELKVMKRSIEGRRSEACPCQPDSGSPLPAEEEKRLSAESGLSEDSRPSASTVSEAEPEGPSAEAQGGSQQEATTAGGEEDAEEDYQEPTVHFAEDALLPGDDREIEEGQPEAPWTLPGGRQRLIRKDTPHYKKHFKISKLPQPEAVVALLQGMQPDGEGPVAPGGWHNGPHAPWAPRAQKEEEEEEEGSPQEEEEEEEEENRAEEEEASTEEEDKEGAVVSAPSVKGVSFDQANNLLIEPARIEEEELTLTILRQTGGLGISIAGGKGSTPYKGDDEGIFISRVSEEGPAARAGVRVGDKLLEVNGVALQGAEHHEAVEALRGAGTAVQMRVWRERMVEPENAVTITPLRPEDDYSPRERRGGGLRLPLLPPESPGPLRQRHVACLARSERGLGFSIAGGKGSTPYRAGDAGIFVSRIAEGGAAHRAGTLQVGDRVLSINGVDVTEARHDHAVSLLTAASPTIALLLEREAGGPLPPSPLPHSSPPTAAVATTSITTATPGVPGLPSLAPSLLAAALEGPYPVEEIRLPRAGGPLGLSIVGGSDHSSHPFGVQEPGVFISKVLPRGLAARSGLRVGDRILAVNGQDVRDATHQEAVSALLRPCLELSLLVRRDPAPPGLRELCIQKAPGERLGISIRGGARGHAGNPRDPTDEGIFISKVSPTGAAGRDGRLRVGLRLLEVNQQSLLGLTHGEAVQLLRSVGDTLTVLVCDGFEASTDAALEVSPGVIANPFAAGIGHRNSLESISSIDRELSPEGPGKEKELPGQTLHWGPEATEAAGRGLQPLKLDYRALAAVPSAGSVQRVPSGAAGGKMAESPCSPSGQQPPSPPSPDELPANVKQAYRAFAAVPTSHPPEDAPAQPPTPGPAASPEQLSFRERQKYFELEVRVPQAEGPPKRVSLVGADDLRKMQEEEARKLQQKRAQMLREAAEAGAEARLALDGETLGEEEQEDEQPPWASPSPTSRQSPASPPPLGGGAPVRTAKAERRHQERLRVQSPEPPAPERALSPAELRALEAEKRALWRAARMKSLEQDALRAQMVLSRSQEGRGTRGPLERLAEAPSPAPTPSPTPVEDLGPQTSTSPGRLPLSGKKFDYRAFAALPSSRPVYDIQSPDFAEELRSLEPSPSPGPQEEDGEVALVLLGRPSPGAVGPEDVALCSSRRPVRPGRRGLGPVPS
row,Variant,effect of a mutation on the interaction
1,S1219E,increasing interaction strength

# Variants of: B2
# Settings: with scrib_human SCRIB
# Remark: another data set of the same source
# Target sequence in this assay (Q14160 whole entry): as above
row,Variant,effect of a mutation on the interaction
1,S1215E;S1219E,increasing interaction strength

# Variants of: B3
# Settings: with scrib_human SCRIB
# Target sequence in this assay (Q14160 whole entry): as above
row,Variant,effect of a mutation on the interaction
1,S828E,increasing interaction strength

# Variants of: B3
# Settings: with shan1_human SHANK1, Q9Y566
# shan1_human SHANK1, Q9Y566, sequence (Q9Y566 whole entry): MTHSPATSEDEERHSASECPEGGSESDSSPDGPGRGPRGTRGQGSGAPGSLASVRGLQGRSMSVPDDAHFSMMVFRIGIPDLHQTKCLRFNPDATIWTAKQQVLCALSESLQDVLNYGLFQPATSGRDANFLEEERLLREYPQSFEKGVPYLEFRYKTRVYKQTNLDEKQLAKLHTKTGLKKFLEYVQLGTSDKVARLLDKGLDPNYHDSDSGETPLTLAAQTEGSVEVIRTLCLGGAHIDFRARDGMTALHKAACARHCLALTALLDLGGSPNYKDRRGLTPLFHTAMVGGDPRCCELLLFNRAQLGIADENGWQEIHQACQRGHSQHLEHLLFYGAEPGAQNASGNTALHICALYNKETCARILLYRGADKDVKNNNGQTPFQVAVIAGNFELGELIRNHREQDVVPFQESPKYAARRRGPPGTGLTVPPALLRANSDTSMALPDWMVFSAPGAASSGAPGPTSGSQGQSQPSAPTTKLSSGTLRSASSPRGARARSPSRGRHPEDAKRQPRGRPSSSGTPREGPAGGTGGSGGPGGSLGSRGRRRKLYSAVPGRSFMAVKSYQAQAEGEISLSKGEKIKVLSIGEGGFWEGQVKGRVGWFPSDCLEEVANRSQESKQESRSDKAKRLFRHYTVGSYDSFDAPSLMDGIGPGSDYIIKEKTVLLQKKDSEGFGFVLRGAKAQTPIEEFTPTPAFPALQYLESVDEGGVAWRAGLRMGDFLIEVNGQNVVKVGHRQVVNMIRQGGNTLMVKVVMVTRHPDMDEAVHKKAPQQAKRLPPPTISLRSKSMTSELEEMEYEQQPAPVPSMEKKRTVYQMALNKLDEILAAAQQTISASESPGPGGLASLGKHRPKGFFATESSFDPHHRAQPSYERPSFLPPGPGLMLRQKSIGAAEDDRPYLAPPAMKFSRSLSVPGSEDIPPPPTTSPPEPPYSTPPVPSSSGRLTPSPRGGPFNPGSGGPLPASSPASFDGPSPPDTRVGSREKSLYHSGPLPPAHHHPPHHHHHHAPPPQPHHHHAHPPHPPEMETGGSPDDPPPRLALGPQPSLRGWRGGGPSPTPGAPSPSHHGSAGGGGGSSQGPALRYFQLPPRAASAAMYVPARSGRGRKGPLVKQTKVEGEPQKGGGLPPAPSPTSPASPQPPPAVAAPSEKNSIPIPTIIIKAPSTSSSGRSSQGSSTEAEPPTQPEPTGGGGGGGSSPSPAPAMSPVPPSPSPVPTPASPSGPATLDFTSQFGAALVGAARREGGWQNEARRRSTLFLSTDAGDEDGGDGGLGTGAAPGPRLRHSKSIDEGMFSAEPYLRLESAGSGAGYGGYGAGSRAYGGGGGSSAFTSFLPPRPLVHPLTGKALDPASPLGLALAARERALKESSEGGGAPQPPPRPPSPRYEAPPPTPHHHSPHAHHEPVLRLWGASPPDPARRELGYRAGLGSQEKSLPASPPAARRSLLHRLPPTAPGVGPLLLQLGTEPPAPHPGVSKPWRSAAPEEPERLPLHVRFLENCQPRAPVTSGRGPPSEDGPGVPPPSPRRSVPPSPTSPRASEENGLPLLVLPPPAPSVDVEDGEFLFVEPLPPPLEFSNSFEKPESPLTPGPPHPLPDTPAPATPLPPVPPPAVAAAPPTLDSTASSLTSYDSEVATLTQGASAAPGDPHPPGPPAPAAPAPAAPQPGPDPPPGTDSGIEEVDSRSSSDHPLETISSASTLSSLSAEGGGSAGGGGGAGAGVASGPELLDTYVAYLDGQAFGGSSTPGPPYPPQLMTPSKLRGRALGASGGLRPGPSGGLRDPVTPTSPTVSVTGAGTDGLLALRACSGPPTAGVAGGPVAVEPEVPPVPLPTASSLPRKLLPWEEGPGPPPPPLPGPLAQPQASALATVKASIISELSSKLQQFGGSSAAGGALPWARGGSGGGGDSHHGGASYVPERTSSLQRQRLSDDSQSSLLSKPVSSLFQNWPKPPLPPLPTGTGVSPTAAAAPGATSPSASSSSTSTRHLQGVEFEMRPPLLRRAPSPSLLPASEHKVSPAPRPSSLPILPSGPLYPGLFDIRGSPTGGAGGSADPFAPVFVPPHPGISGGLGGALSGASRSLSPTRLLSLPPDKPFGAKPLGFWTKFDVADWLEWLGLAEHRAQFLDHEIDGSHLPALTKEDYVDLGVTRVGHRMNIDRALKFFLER
row,Variant,effect of a mutation on the interaction
1,S828E,decreasing interaction strength

# Variants of: B3
# Settings: with dlg1_human DLG1, Q12959
# dlg1_human DLG1, Q12959, sequence (Q12959 whole entry, looked up): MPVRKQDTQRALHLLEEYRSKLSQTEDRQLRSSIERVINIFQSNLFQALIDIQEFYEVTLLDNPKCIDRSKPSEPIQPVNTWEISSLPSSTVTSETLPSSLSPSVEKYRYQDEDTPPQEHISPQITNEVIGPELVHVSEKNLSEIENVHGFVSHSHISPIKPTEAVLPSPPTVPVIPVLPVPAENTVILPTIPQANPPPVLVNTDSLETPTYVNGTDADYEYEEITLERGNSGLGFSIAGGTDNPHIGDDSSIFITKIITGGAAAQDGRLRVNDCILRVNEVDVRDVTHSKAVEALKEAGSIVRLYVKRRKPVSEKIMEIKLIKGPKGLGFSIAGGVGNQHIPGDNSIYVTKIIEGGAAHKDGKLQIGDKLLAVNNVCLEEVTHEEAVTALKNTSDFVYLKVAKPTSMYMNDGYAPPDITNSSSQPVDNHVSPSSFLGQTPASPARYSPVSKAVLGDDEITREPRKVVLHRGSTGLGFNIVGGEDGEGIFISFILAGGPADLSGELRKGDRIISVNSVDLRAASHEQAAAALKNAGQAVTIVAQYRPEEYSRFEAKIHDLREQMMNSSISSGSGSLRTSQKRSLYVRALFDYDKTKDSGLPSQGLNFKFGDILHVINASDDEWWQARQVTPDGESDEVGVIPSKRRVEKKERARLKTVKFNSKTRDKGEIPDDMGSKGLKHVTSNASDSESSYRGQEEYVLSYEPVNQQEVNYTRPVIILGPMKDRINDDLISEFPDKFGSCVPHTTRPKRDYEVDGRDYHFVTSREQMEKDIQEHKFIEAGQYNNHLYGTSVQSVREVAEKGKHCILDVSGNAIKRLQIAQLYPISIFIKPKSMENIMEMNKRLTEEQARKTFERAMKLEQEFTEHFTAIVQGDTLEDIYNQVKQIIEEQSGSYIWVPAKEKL
row,Variant,effect of a mutation on the interaction
1,S828E,decreasing interaction strength

# Variants of: B4
# Settings: with scrib_human SCRIB
# Target sequence in this assay (Q14160 whole entry): as the sequence (Q14160 whole entry) above
row,Variant,effect of a mutation on the interaction
1,T761E,causing an interaction

# Variants of: B4
# Settings: with scrib_human SCRIB
# Remark: another data set of the same source
# Target sequence in this assay (Q14160 whole entry): as above
row,Variant,effect of a mutation on the interaction
1,T761E,increasing interaction strength

# Variants of: B5
# Settings: with scrib_human SCRIB
# Target sequence in this assay (Q14160 whole entry): as above
row,Variant,effect of a mutation on the interaction
1,MPPMPSAPPVHPPPDGGWGWIVVGAAFISIGFSYAFPKAVTVFFKEIQQIFHTTYSEIAWISSIMLAVMYAGGPVSSVLVNKYGSRPVVIAGGLLCCLGMVLASFSSSVVQLYLTMGFITGLGLAFNLQPALTIIGKYFYRKRPMANGLAMAGSPVFLSSLAPFNQYLFNTFGWKGSFLILGSLLLNACVAGSLMRPLGPNQTTSKSKNKTGKTEDDSSPKKIKTKKSTWEKVNKYLDFSLFKHRGFLIYLSGNVIMFLGFFAPIIFLAPYAKDQGIDEYSAAFLLSVMAFVDMFARPSVGLIANSKYIRPRIQYFFSFAIMFNGVCHLLCPLAQDYTSLVLYAVFFGLGFGSVSSVLFETLMDLVGAPRFSSAVGLVTIVECGPVLLGPPLAGKLVDLTGEYKYMYMSCGAIVVAASVWLLIGNAINYRLLAKERKEENARQKTRESEPLSKSKHSEDVNVKVSNAQSVTEERETNI [S472E],decreasing interaction strength
